Data reported in paper PMC4109836, “Analysis of the co-operative interaction between the allosterically regulated proteins GK and GKRP using tryptophan fluorescence” (Biochemical Journal, 2014).
Changes are numbered by the printed parent chain. Names and notes keep the numbering of the source. Like-named read-outs stand apart in the source and are kept apart here. One block for each molecule: values may come before it.

Experiments:
GK-W99R/W167F/W257F = biological target: T1, GK-W99R/W167F/W257F (Homo sapiens, UniProt P35557, W167F/W257F/W99R); assay: Glucose binding to unbound GK-W99R/W167F/W257F
T1 construct: GST (cleaved yes); made in house; host or cells: Escherichia coli
T1 sequence (P35557 1-465 W99R/W167F/W257F): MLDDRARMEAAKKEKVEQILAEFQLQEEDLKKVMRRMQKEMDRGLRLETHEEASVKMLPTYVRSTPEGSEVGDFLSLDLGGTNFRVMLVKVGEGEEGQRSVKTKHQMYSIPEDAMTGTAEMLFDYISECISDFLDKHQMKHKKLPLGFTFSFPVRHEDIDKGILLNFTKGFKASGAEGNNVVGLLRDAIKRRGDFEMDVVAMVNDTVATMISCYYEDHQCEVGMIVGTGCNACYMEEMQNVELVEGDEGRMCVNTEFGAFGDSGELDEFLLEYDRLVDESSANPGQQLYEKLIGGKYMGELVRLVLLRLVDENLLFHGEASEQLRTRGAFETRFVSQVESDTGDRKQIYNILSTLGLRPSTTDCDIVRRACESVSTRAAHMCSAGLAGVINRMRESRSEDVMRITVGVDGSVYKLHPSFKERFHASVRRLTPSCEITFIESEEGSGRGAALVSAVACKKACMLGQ

[1] = biological target: T2, hGKRP (0.3 μM)–GK-W99R/W167F/W257F (1 μM) complex, GKRP-P446L (Homo sapiens, UniProt P35557+Q14397, P446L/W167F/W257F/W99R); assay: Ligand binding by / disassembly of GKRP-P446L–GK-W99R/W167F/W257F complex by TF of hGKRP; conditions: ligand titration of 3:1 GK–GKRP-P446L complex, 20°C
T2 construct: FLAG; GST (cleaved yes); made in house; host or cells: Escherichia coli
T2 sequence (Q14397 1-625 P446L): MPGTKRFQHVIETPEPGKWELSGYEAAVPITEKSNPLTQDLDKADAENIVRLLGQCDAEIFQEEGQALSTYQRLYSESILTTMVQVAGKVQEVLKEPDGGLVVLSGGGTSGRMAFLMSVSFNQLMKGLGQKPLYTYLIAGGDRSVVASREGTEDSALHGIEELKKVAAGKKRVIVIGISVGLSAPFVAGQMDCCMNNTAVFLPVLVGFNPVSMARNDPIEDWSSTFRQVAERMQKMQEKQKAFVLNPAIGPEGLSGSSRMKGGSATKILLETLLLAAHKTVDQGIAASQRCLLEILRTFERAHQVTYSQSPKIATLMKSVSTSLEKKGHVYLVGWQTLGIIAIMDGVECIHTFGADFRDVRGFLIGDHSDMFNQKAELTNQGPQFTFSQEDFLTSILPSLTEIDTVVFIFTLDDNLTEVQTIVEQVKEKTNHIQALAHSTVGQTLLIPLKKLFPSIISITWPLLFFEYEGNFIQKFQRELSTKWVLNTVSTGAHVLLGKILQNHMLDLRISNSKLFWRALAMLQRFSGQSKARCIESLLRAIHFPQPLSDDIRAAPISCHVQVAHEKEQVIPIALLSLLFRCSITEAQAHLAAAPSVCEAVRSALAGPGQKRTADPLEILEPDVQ
T2 sequence (P35557 1-465 W99R/W167F/W257F): T1 sequence (P35557 1-465 W99R/W167F/W257F)
Description: Spectra were measured with a Fluorolog-3-21 Jobin-Yvon Spex Instrument SA equipped with a 450 W Xenon lamp for excitation and a cooled R2658P Hamamatsu photomultiplier tube for detection. For all measurements, 90° geometry was employed and 295 nm excitation wavelengths were used to observe fluorescence emission in the 300–500 nm range. For TF, spectra slit width was set to provide a bandpath of 3 nm for excitation and 3 nm for emission. Spectra were corrected for instrumental response using Spex instrument software. A thermostatically controlled cell holder maintained sample temperature at 20°C. A thermocoupler was used to measure sample temperature. The buffer used contained 20 mM phosphate, 50 mM KCl, 1 mM EDTA and 1 mM DTT (pH 7.2).
Fluorescence data were obtained via the stepwise addition of the appropriate amount of non-fluorescent GK-W99R/W167F/W257F to GKRP in a fluorescence cuvette. […] The change in GKRP protein fluorescence during titration was also measured using time-dependent scans. A manual procedure was used such that a typical titration with 10–12 additions required 20–25 min to perform. The same buffer as described above was routinely used unless stated otherwise. The bandpath was 0.5 nm at 295 nm for excitation and 12 nm at 340 nm for emission. […] For some graphical presentations the linear form of the Hill equation was used: log[F/(Fsat−F)]=H log x−H log KD [46].

GKRP-WT = biological target: T3, GKRP-WT (Homo sapiens, UniProt P35557+Q14397, W167F/W257F/W99R); assay: Titration of GKRP-WT with GK-W99R/W167F/W257F (GK–GKRP complex assembly) by TF; assay type: binding; conditions: for Kd: read-out: S0.5 of GK;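 as to all read-outs here: tryptophan fluorescence of GKRP titrated with GK, excitation 295 nm, emission read at 340 nm, phosphate buffer pH 7.2, Hill equation fitting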
T3 construct: FLAG; GST (cleaved yes); made in house; host or cells: Escherichia coli
T3 sequence (Q14397 1-625): T2 sequence (Q14397 1-625 P446L) with L446P
T3 sequence (P35557 1-465 W99R/W167F/W257F): T1 sequence (P35557 1-465 W99R/W167F/W257F)

[2] = GK titration with 20 μM GKA, 20°C
[3] = GK titration with 500 μM F1P, 20°C
[4] = GK titration with 500 μM F6P, sigmoidal fit, 20°C
[5] = GK titration with 500 μM F6P, simple saturation fit (H = 1)
[6] = GK titration with 100 mM D-glucose and 20 μM GKA, 20°C
[7] = GK titration with 100 mM D-glucose and 500 μM F1P, 20°C
[8] = GK titration with 100 mM D-glucose and 500 μM F6P, 20°C
[9] = GK titration with 100 mM D-glucose, 20°C
[10] = GK titration, no further agent, sigmoidal fit, 20°C
[11] = GK titration, no further agent, simple saturation fit (H = 1)

Kd (GK-W99R/W167F/W257F): 5000 µM
H [1]: 1
Molecule: OC[C@H]1OC(O)[C@H](O)[C@@H](O)[C@@H]1O (stereo partly drawn) [D-Glucose, D-glucose]

H (GKRP-WT; [2]): 3.4
ΔF (GKRP-WT; [2]): 0.42
Kd (GKRP-WT; [2]): 2.77 µM
H (GKRP-WT; [3]): 2.8
ΔF (GKRP-WT; [3]): 0.32
Kd (GKRP-WT; [3]): 2.68 µM
H (GKRP-WT; [4]): 1.71
ΔF (GKRP-WT; [4]): 0.31
Kd (GKRP-WT; [4]): 1.2 µM
H (GKRP-WT; GK titration with 500 μM F6P, simple saturation fit): 1
ΔF (GKRP-WT; [5]): 0.43
Kd (GKRP-WT; [5]): 1.84 µM
H (GKRP-WT; [6]): 3.2
ΔF (GKRP-WT; [6]): 0.42
Kd (GKRP-WT; [6]): 4.75 µM
H (GKRP-WT; [7]): 2.25
Kd (GKRP-WT; [7]): 3.3 µM
H (GKRP-WT; [8]): 2.83
ΔF (GKRP-WT; [8]): 0.35
Kd (GKRP-WT; [8]): 2.43 µM
H (GKRP-WT; [9]): 2.78
ΔF (GKRP-WT; [9]): 0.42
Kd (GKRP-WT; [9]): 2.56 µM
H (GKRP-WT; [10]): 1.74
ΔF (GKRP-WT; [10]): 0.29
Kd (GKRP-WT; GK titration, no further agent, sigmoidal fit, 20°C, listed as GK): ~1.2 µM
Kd (GKRP-WT; [10]): 1.22 µM
H (GKRP-WT; GK titration, no further agent, simple saturation fit): 1
ΔF (GKRP-WT; [11]): 0.39
Kd (GKRP-WT; [11]): 1.85 µM
maximal ΔTF value of GKRP-WT (GKRP-WT; range depending on the assay conditions): 0.29–0.42
increase of the TF of GKRP-WT (GKRP-WT; saturating GK (5 μM), 0.3 μM GKRP): 29%
S0.5 value of GK with GKRP-WT lower than with GKRP-P446L (on average) (GKRP-WT; with and without F6P): 35%
B1: GK-W99R/W167F/W257F: tryptophan residue-free, non-fluorescent recombinant human β-cell GK made for the present study (protein)
chain: T1 sequence (P35557 1-465 W99R/W167F/W257F)
modifications: left off: GST, end not stated, cleaved
notes: tryptophan residue-free, non-fluorescent recombinant human β-cell GK made for the present study
